From publication PMC3176816, “Characterization and Regulation of the Osmolyte Betaine Synthesizing Enzymes GSMT and SDMT from Halophilic Methanogen Methanohalophilus portucalensis” (PLoS ONE, 2011)

Legend:
[1] = target: T1, MpSDMT (Methanohalophilus portucalensis, UniProt F6KV62); assay: radiometric acid-washed charcoal methyltransferase assay; type: biochemical; settings: read-out: I50 AdoHcy
T1 construct: gene SAMN06264941_0526; full length, 278 residues, 30,690 Da calculated (38 kD on SDS-PAGE)
T1 sequence (F6KV62 1-278): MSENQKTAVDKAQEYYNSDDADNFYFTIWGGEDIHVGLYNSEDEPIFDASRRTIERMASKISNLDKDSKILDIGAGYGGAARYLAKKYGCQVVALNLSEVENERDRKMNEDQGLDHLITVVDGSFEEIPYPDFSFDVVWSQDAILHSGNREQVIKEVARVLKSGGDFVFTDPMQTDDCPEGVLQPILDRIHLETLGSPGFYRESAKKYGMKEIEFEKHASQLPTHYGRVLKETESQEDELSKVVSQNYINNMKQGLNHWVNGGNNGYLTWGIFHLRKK
Source text: radiometric acid-washed charcoal methyltransferase assay on MpSDMT

[2] = target: T2, MpGSMT (Methanohalophilus portucalensis, UniProt F6KV61); assay: as above; type: biochemical
T2 construct: gene gsmt; full length, 263 residues, 29,040 Da calculated (35 kD on SDS-PAGE)
T2 sequence (F6KV61 1-263): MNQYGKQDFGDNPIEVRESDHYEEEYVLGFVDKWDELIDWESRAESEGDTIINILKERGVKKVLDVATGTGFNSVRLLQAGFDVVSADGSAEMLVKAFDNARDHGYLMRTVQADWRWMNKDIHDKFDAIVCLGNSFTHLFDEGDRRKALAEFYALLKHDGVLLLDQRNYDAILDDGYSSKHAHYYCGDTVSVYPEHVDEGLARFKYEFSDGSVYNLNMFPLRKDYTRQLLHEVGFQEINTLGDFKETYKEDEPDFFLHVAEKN
Source text: radiometric acid-washed charcoal methyltransferase assay on MpGSMT

[3] = substrate: C[S+](CC[C@H](N)C(=O)O)C[C@H]1O[C@@H](n2cnc3c(N)ncnc32)[C@H](O)[C@@H]1O; assay: purified protein; settings: TES pH 7.3, 37 °C, labelled compound
[4] = target: the molecule itself; assay: AUC; sedimentation velocity, 0.70 mg/ml MpGSMT in 0.1 M TES buffer (pH 7.3) with 0 to 2.0 M KCl, 20°C, 42,000 rpm, SEDFIT 9.4c; monomer to dimer
[5] = substrate: CN(C)CC(=O)O; assay: radiometric acid-washed charcoal methyltransferase assay; type: biochemical, Methanohalophilus portucalensis; settings: DMT activity, co-substrate AdoMet, TES pH 7.3, 37 °C (text b54 prints a different Km, equal to that of the native enzyme in the table)
[6] = substrate: CNCC(=O)O; assay: as above; type: biochemical, Methanohalophilus portucalensis; settings: SMT activity, co-substrate AdoMet, TES pH 7.3, 37 °C (text b54 prints a different Km, equal to that of the native enzyme in the table)

Nc1ncnc2c1ncn2[C@@H]1O[C@H](CSCC[C@H](N)C(=O)O)[C@@H](O)[C@H]1O [AdoHcy] gave an IC50 [1] of 150 µM and an IC50 ([2]; read-out: I50 AdoHcy) of 70 µM.

In the case of C[N+](C)(C)CC(=O)[O-] [betaine], the activity at 1 M ([2]; read-out: Relative activity (%) / Betaine / 1 M) is reported as 30%.

B1: Methanohalophilus portucalensis glycine sarcosine methyltransferase (recombinant MpGSMT) (enzyme, UniProt F6KV61 1-263, looked up)
chain: MNQYGKQDFGDNPIEVRESDHYEEEYVLGFVDKWDELIDWESRAESEGDTIINILKERGVKKVLDVATGTGFNSVRLLQAGFDVVSADGSAEMLVKAFDNARDHGYLMRTVQADWRWMNKDIHDKFDAIVCLGNSFTHLFDEGDRRKALAEFYALLKHDGVLLLDQRNYDAILDDGYSSKHAHYYCGDTVSVYPEHVDEGLARFKYEFSDGSVYNLNMFPLRKDYTRQLLHEVGFQEINTLGDFKETYKEDEPDFFLHVAEKN
notes: glycine sarcosine methyltransferase (GSMT) of Methanohalophilus portucalensis strain FDF1T; complete Mpgsmt gene, 792 bp, 263 amino acids, GenBank HQ634197; The tag is inferred from the vector and the Ni Sepharose purification; source: E. coli BL21(DE3)RIL, pET28a, purified (Ni Sepharose 6 Fast Flow)
For B1, the Km ([3]; GMT activity, methyl acceptor glycine) was 8260 µM and the “stoichiometry N” value [4] was 2.

B2: MpSDMT (Methanohalophilus portucalensis FDF-1) (protein)
chain: MSENQKTAVDKAQEYYNSDDADNFYFTIWGGEDIHVGLYNSEDEPIFDASRRTIERMASKISNLDKDSKILDIGAGYGGAARYLAKKYGCQVVALNLSEVENERDRKMNEDQGLDHLITVVDGSFEEIPYPDFSFDVVWSQDAILHSGNREQVIKEVARVLKSGGDFVFTDPMQTDDCPEGVLQPILDRIHLETLGSPGFYRESAKKYGMKEIEFEKHASQLPTHYGRVLKETESQEDELSKVVSQNYINNMKQGLNHWVNGGNNGYLTWGIFHLRKK
notes: full length, 278 residues, 30,690 Da calculated (38 kD on SDS-PAGE)
B2 gave a Km [5] of 660 µM, a Km [6] of 660 µM and a Km ([3]; SMT activity, methyl acceptor sarcosine) of 500 µM.
